Measured values published in US20170349669A1 (Hoffmann-La Roche, published 2017).
Positions count from the first letter of the chain named. Read-outs that look alike come from different tables or passages of the source.

Experiments:
human Ang-2-RBD-Fc [1] = biological target: T1, human Ang-2-RBD-Fc (human, UniProt O15123 275-496, limits assumed); experiment: SPR Biacore T200, apparent KD, antibody captured via anti-human F(ab')2, Ang2-RBD-Fc as analyte
T1 construct: domain: RBD; Used as analyte in solution; The KD is called apparent; not shown: Fc part
T1 sequence (looked up): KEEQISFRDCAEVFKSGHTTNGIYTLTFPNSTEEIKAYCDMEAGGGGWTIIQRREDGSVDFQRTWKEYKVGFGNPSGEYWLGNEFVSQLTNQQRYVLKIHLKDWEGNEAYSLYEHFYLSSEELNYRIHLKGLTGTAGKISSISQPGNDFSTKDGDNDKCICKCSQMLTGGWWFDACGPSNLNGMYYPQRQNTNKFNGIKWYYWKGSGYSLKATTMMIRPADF
Method: (§1) Binding of indicated antibodies to human Ang-2-RBD-Fc was investigated by surface plasmon resonance using a BIACORE® T200 instrument (GE Healthcare). Around 8000 (RU) of goat anti human F(ab′)₂ (10 μg/ml anti human F(ab)′₂; Order Code: 28958325; GE Healthcare Bio-Sciences AB, Sweden) were coupled on a Series S CM5 chip (GE Healthcare BR-1005-30) at pH 5.0 by using an amine coupling kit supplied by the GE Healthcare. HBS-N (10 mM HEPES, 150 mM NaCl pH 7.4, GE Healthcare) was used as running buffer during the immobilization procedure. For the following kinetic characterization, sample and running buffer was PBS-T (10 mM phosphate buffered saline including 0.05% Tween20) at pH 7.4. The flow cell was set to 25° C.—and the sample block set to 12° C.—and primed with running buffer twice prior to kinetic characterization.
(§2) The bispecific antibody was captured by injecting a 5 nM solution for 25 sec at a flow of 5 μl/min. The association was measured by injection of human Ang2-RBD-Fc in various concentrations in solution for 120 sec at a flow of 30 μl/min starting with 100 nM in 1:3 serial dilutions. The dissociation phase was monitored for up to 180 sec and triggered by switching from the sample solution to running buffer. The surface was regenerated by 60 sec washing with a Glycine pH 2.1 solution at a flow rate of 30 μl/min. Bulk refractive index differences were corrected by subtracting the response obtained from a goat anti human F(ab′)₂ surface. Blank injections are also subtracted (=double referencing). For calculation of apparent KD the Langmuir 1:1 model was used.

human VEGFA-121-His [2] = biological target: T2, human VEGFA-121-His (human, UniProt P15692-9 27-147); experiment: SPR Biacore T200, VEGFA-121-His captured via anti-His, antibody as analyte, 1:1 Langmuir
T2 construct: Captured on an anti-His antibody surface; P15692 is the canonical VEGF-A entry, and the 121 isoform is one of its splice forms; also called VEFGA-121-His; not shown: His tag
T2 sequence (looked up): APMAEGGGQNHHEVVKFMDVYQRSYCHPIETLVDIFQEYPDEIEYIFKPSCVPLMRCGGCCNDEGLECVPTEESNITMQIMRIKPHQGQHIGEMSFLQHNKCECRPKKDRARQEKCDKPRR
Method: as §1, with “VEGFA-121” for “Ang-2-RBD-Fc”, “10000” for “8000”, “of” for “of goat”, “His antibody (1” for “human F(ab′)₂ (10”, “His antibody;” for “human F(ab)′₂;”, “28995056;” for “28958325;”
(§3) VEFGA-121-His was captured by injecting a 0.5 μg/ml solution for 30 sec at a flow of 5 μl/min. The association was measured by injection of the indicated antibodies in various concentrations in solution for 180 sec at a flow of 30 μl/min starting with 1000 nM in 1:3 serial dilutions. The dissociation phase was monitored for up to 600 sec and triggered by switching from the sample solution to running buffer. The surface was regenerated by 60 sec washing with a Glycine pH 1.5 solution at a flow rate of 30 μl/min. Bulk refractive index differences were corrected by subtracting the response obtained from a anti His antibody surface. Blank injections are also subtracted (=double referencing). For calculation of KD and other kinetic parameters the Langmuir 1:1 model was used.

human VEGFA-121-His [3] = biological target: T2, human VEGFA-121-His; experiment: as above; remark: listed apart in the source
Method: as §1, with “VEGFA-121” for “Ang-2-RBD-Fc”, “10000” for “8000”, “of” for “of goat”, “His antibody (1” for “human F(ab′)₂ (10”, “His antibody;” for “human F(ab)′₂;”, “28995056;” for “28958325;”
as §3

human Ang-2-RBD-Fc [4] = biological target: T1, human Ang-2-RBD-Fc; experiment: SPR Biacore T200, apparent KD, antibody captured via anti-human F(ab')2, Ang2-RBD-Fc as analyte; remark: listed apart in the source
Method: as §1, §2

B1: Ang2VEGF_280 (bispecific antibody, human IgG1, kappa)
heavy 1: not shown
light 1: EVQLVESGGGLVQPGGSLRLSCAASGYTFTNYGMNWVRQAPGKGLEWVGWINTYTGEPTYAADFKRRFTFSLDTSKSTAYLQMNSLRAEDTAVYYCAKYPHYYGSSHWYFDVWGQGTLVTVSSASTKGPSVFPLAPSSKSTSGGTAALGCLVKDYFPEPVTVSWNSGALTSGVHTFPAVLQSSGLYSLSSVVTVPSSSLGTQTYICNVNHKPSNTKVDKKVEPKSC
heavy 2: not shown
light 2: QPGLTQPPSVSVAPGQTARITCGGNNIGSKSVHWYQQKPGQAPVLVVYDDSDRPSGIPERFSGSNSGNTATLTISRVEAGDEADYYCQVWDSSSDHYVFGTGTKVTVLRTVAAPSVFIFPPSDKKLKSGTASVVCLLNNFYPREAKVQWKVDNALQSGNSQESVTEQDSKDSTYSLSSTLTLSKADYEKHKVYACEVTHQGLSSPVTKSFNRGEC
notes: Bivalent CrossMAb-Fab with four different chains; also called Ang2VEGF-0280
Binder B1 has a Kd (human Ang-2-RBD-Fc [1]) of 3 nM, a Kd (human VEGFA-121-His [2]) of 7 nM and a Kd (human VEGFA-121-His [3]) of 7 nM. It also gave a Kd (human Ang-2-RBD-Fc [4]) of 3 nM.

B2: Ang2VEGF_290 (bispecific antibody, human IgG1, kappa, lambda)
heavy 1: not shown
light 1: B1 light 1
heavy 2: not shown
light 2: QPGLTQPPSVSVAPGQTARITCGGNNIGSKSVHWYQQKPGQAPVLVVYDDSDRPSGIPERFSGSNSGNTATLTISRVEAGDEADYYCQVWDSSSDHYVFGTGTKVTVLGQPKAAPSVTLFPPSSEELQANKATLVCLISDFYPGAVTVAWKADSSPVKAGVETTTPSKQSNNKYAASSYLSLTPEQWKSHRSYSCQVTHEGSTVEKTVAPTECS
notes: The Ang2 arm has a lambda light chain; also called Ang2VEGF-0290 (wt); Ang2VEGF-0290
In the case of B2, the Kd (human Ang-2-RBD-Fc [1]) is reported as 3 nM and the Kd (human VEGFA-121-His [3]) is reported as 8 nM.

B3: Ang2VEGF_279 (bispecific antibody, human IgG1, kappa, lambda)
heavy 1: not shown
light 1: B1 light 1
heavy 2: not shown
light 2: B2 light 2 with E125K, E126K
notes: The Ang2 arm has a lambda light chain; also called Ang2VEGF-0279
B3 gave a Kd (human Ang-2-RBD-Fc [1]) of 5 nM and a Kd (human VEGFA-121-His [3]) of 6 nM.
